Data as given in patent US9296994B2, “Archease as RNA ligaes complex member” (IMBA—INSTITUT FÜR MOLEKULARE BIOTECHNOLOGIE GMBH, priority 2012, dated 2016).

Assays:
[1] = target: T1, FLAG-RTCB, the catalytic subunit of the human tRNA ligase (Homo sapiens, UniProt Q9Y3I0); assay: Assay to monitor Archease function and inhibition of RNA ligase activity (linear intron substrate); type: biochemical; details: FLAG-RTCB from HEK293 cells with His-tagged Archease, GTP or GMPcPP at 0.5 mM
T1 construct: FLAG; made in house; host or cells: HEK293 cells (FLAG-RTCB)
T1 sequence (Q9Y3I0 whole entry): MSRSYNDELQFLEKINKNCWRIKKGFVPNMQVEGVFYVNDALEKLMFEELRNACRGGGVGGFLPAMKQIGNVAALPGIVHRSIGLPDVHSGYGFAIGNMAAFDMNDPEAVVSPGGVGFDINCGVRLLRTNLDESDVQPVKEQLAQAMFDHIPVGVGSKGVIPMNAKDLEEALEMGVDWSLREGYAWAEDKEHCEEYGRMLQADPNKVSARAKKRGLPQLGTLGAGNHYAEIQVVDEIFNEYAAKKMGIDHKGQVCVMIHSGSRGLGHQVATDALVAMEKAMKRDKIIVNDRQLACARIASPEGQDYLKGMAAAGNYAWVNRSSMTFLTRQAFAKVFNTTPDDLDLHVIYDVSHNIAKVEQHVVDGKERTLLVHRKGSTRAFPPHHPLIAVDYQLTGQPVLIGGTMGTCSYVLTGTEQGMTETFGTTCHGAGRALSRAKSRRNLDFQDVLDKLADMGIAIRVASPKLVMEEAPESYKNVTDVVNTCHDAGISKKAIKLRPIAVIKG
T1 sequence (Q92499 whole entry partner): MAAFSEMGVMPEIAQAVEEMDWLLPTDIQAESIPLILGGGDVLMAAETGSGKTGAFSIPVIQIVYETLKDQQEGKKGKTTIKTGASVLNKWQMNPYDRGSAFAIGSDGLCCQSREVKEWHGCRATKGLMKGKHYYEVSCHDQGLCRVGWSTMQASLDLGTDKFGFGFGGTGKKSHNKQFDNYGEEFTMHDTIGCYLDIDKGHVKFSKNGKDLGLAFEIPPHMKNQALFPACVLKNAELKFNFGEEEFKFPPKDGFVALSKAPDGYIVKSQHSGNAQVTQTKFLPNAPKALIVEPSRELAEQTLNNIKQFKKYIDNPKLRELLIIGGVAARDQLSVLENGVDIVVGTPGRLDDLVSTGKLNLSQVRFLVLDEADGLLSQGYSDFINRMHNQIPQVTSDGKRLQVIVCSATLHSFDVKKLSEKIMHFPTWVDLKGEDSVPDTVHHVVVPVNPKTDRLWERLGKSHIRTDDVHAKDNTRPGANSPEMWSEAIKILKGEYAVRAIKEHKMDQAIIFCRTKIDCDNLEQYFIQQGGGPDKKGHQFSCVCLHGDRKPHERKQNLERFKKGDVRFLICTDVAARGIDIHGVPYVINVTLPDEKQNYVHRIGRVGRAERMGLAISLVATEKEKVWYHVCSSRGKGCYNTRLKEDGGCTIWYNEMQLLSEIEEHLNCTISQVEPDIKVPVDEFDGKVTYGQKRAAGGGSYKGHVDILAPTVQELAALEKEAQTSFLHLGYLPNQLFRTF
T1 sequence (Q52LJ0 whole entry partner): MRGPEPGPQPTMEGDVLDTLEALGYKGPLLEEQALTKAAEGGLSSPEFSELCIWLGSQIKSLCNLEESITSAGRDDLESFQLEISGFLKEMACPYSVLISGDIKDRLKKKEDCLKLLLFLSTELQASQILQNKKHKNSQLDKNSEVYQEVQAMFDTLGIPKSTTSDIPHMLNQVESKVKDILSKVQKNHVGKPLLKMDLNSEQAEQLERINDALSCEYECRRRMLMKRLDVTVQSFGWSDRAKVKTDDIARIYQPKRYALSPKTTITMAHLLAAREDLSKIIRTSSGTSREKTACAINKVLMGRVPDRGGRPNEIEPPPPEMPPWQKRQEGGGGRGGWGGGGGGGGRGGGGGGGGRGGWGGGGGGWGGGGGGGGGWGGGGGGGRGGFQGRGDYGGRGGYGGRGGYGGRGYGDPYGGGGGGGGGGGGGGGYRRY
T1 sequence (Q9BVC5 whole entry partner): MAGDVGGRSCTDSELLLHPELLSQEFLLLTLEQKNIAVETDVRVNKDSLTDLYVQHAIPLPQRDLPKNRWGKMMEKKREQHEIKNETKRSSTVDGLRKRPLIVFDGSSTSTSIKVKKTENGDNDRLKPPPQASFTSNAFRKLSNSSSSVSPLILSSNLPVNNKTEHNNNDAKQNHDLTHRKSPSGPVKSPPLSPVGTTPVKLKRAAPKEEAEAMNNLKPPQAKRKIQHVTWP
T1 sequence (Q9Y224 whole entry partner): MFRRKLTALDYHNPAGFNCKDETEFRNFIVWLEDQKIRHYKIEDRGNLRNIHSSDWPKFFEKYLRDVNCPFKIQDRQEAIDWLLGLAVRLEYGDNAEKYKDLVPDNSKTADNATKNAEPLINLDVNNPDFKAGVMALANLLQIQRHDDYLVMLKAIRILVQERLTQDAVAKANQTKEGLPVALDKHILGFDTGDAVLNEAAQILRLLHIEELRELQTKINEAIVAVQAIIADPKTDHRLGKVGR
Method: FIG. 14: Assay to monitor inhibition of RNA ligase activity. […] The linear substrate (second from bottom to top) is converted into a circular product (bottom) or a concatemer (top), which is further circularized (third from bottom to top). Ligation only took place with wild-type Archease and GTP.
The RNA ligation activity of FLAG-RTCB, the catalytic subunit of the human tRNA ligase, was determined in the presence of wildtype or mutant (D39A) Archease with the addition of GTP or non-hydrolysable GMPcPP (5′-guanylylmethylenebisphosphonate). […] The reaction was carried out with FLAG-RTCB purified from HEK293 cells and hexahistidine tagged wild-type or mutant Archease. Furthermore, GTP or GMPcPP were used at 0.5 mM concentration. A linear intron derived from a radioactively labelled pre-tRNA that was transcribed with T7 polymerase and cleaved with recombinant tRNA endonuclease from Methanocaldococcus jannaschii served as substrate. Cleavage products were resolved on preparative denaturing polyacrylamide gels and the linear intron was eluted overnight and recovered by precipitation. With reference to FIG. 14, FLAG-RTCB and wild-type Archease in the presence of GTP are able to convert the linear substrate (second from bottom to top) into a circular product (bottom) or a concatemer (top), which is further circularized (third from bottom to top). This type of assay can be used to validate candidate inhibitors of the Archease or even the ligase or to screen compound libraries in order to find inhibitory molecules.

[2] = test system: pre-cleaved tRNA substrates; assay: RNA ligase activity assay of affinity-purified FLAG-tagged Archease on pre-cleaved tRNA substrates; type: biochemical, human; details: FLAG immuno-precipitate
Method: A) Coomassie Blue stained preparations of FLAG-tagged Archease and HSPC117 affinity purified at 150 mM NaCl. B) RNA ligase activity assay of FLAG-HSPC117 and FLAG-Archease using pre-cleaved tRNA substrates. Extracts of HEK 293 cells were used as a negative control. * Indicates unspecific products.
Stable cell lines expressing a FLAG-tagged version of Archease and HSPC117 were generated to perform immuno-precipitations. Fluted FLAG-Archease was assayed for tRNA ligation in parallel with FLAG-HSPC117, which contains the entire tRNA ligase complex.

[3] = test system: cleaved Xbp1 RNA minimal substrate; assay: In vitro Xbp1 splicing (exon ligation) assay with Ire1 pre-cleaved Xbp1 RNA; type: biochemical, human; details: for Stimulation of ligation of Xbp1 RNA minimal substrates by affinity purified human tRNA ligase complex: addition of recombinant protein
Source text: FIG. 8: The human tRNA ligase HSPC117 and Archease are both required for non-conventional splicing of Xbp1 mRNA during the Unfolded Protein Response (UPR). A) Experimental outline for in vitro splicing assay. B) An internally labeled fragment of Xbp1 mRNA was pre-cleaved with recombinant Ire1 endonuclease and supplemented with buffer or HeLa whole-cell extract (wce) for the indicated time points to allow ligation of exon halves. Formation of splice product is specific to the presence of both Ire1 and cell extract. Lanes marked “unspliced” and “spliced” contain control transcripts to mark the size of the splice product. C) HSPC117 and Archease both contribute to non-conventional splicing. 3′ end labeled Xbp1 was pre-cleaved with Ire1 and supplemented with whole-cell extract from HeLa cells treated with siRNAs as indicated above the lanes. Cell extracts were harvested 72 hrs post transfection. D) Ligase activity for non-conventional splicing resides in HSPC117 but not in Archease. In vitro splicing assay using 3′end labeled Xbp1 carried out using whole cell extract (input) or FLAG-IP from HEK293 cells stably expressing FLAG-HSPC117, FLAG-Archease or FLAG-DDX1. Ligation activity is only found in IPs of integral members of the tRNA ligase complex. E) Non-conventional splicing activity is stimulated by addition of Archease. Splicing assay using 3′ end labeled Xbp1 carried out as above with addition of buffer or recombinant protein as indicated above the lanes. […] Bovine Serum Albumine (BSA) was included as control.
For the splicing assay RNA was prepared by T7-transcrition from PCR product containing spliced and unspliced form of human Xbp1. Substrates were labelled internally using a-GTP and at the 3′end using ligation to pCp. Substrate was pre-cleaved with recombinant Ire1 for 5 mins in tRNA ligation buffer with subsequent addition of protein extract of FLAG-IP eluate to total volume of 5 μl. Samples were treated with proteinase K and phenol-chloroform extracted prior to loading on 10% PAGE gel.
Perturbation of normal ER function causes mis- or unfolded proteins to accumulate leading to activation of the unfolded protein response (UPR). One of three UPR pathway inducers in mammals, the ER transmembrane protein Ire1, cleaves the Xbp1 mRNA specifically to remove a 26 nt intron (FIG. 8A). […] None of the additional four components of the tRNA ligase complex were required for ligation in agreement with previous findings (WO 2012/28606). […] The reduced ligation activity seen in Archease-depleted extracts raised the question whether Archease is an RNA ligase or rather acts to stimulate the ligation activity of other ligases. To address this question stable cell lines expressing FLAG-tagged versions of HSPC117, Archease, and DDX1 (a DEAD-box helicase component of the human tRNA ligase complex) were generated and the Xbp1 ligation assay using FLAG-IPs was performed.
To further address the stimulatory activity of Archease both HSPC117 and Archease were depleted by RNAi and then an Archease rescue-construct containing either WT or MUT Archease was introduced.

[4] = target: T2, human tRNA ligase complex (Homo sapiens, UniProt Q9Y3I0); assay: RNA ligation assay with affinity-purified tRNA ligase complex and added recombinant Archease; type: biochemical; details: pre-cleaved tRNA substrates or linear intron; time course
T2 construct: FLAG; made in house; Archease expressed in E. coli
T2 sequence (Q9Y3I0 whole entry): as the sequence (Q9Y3I0 whole entry) above
T2 sequence (Q92499 whole entry partner): as the sequence (Q92499 whole entry partner) above
T2 sequence (Q52LJ0 whole entry partner): as the sequence (Q52LJ0 whole entry partner) above
T2 sequence (Q9BVC5 whole entry partner): as the sequence (Q9BVC5 whole entry partner) above
T2 sequence (Q9Y224 whole entry partner): as the sequence (Q9Y224 whole entry partner) above
Method: FIG. 3: Archease boosts RNA ligation by the human tRNA ligase complex. A) Time-course ligation assay with affinity-purified tRNA ligase complex and pre-cleaved tRNA substrates in absence or presence of recombinant Archease. B) Time course ligation assay with affinity purified tRNA ligase complex and isolated linear introns (2.5 μM) in absence or presence of recombinant Archease (8.5 μM) expressed in E. coli. The signals corresponding to the concatemerized intron were quantified and plotted as fraction of the total signal detectable in the respective lane.
FIG. 6: The point mutations D39A and K144A abolish the function of Archease in RNA ligation. A) Time-course of ligation activity of FLAG-HSPC117 complexes upon addition of recombinant wild-type or mutant Archease (15 μM). B) SDS-PAGE analysis of purified recombinant wild-type and mutant Archease.
Addition of Archaease influences ligase activity of affinity purified human tRNA ligase complexes.
To study the function of Archease the available NMR structure from the euryarchaeote Methanothermobacter thermautotrophicus (Yee et al., 2002) (36% identical to human protein) was used and aspartic acid (D) 39 and lysine (K) 144, both extremely conserved residues, were replaced by alanines (D39A; K144A) (FIG. 5). Wild-type and mutant versions of Archease were over-expressed in […] and tRNA ligase activity was measured. […] FIG. 6B confirms equal concentrations of recombinant proteins added to the reactions.

Nc1nc2c(ncn2[C@@H]2O[C@H](COP(=O)(O)CP(=O)(O)OP(=O)(O)O)[C@@H](O)[C@H]2O)c(=O)[nH]1 [GMPcPP, 5′-guanylylmethylenebisphosphonate]
RNA ligation activity of FLAG-RTCB [1]: strongly inhibits the ligation reaction
RNA ligation activity of FLAG-RTCB ([1]; listed as GMPCPP): inhibits the reaction

B1: FLAG-tagged Archease: FLAG-tagged version of Archease affinity purified from stable cell lines (protein)
chain: MAQEEEDVRDYNLTEEQKAIKAKYPPVNRKYEYLDHTADVQLHAWGDTLEEAFEQCAMAMFGYMTDTGTVEPLQTVEVETQGDDLQSLLFHFLDEWLYKFSADEFFIPREVKVLSIDQRNFKLRSIGWGEEFSLSKHPQGTEVKAITYSAMQVYNEENPEVFVIIDI
modifications: left off: small tags and cut ends
RNA ligase activity of the affinity-purified protein itself [2]: RNA ligase activity was only detectable in reactions containing affinity-purified RNA ligase complex but not FLAG-tagged Archease
Xbp1 ligation activity of FLAG-IP ([3]; FLAG-IP from stable HEK293 cells): no ligation was detected

B2: K144A: Archease point mutant, lysine 144 replaced by alanine; inactive (protein, listed as Homo sapiens)
chain: MAQEEEDVRDYNLTEEQKAIKAKYPPVNRKYEYLDHTADVQLHAWGDTLEEAFEQCAMAMFGYMTDTGTVEPLQTVEVETQGDDLQSLLFHFLDEWLYKFSADEFFIPREVKVLSIDQRNFKLRSIGWGEEFSLSKHPQGTEVAAITYSAMQVYNEENPEVFVIIDI
RNA ligase activity of affinity purified tRNA ligase complex upon addition of recombinant Archease [4]: neither of the mutant versions of Archease stimulated the low levels of ligation
Stimulation of ligation of Xbp1 RNA minimal substrates by affinity purified human tRNA ligase complex [3]: inactive

B3: D39A: Archease point mutant, aspartic acid 39 replaced by alanine; inactive (protein, listed as Homo sapiens)
chain: MAQEEEDVRDYNLTEEQKAIKAKYPPVNRKYEYLDHTAAVQLHAWGDTLEEAFEQCAMAMFGYMTDTGTVEPLQTVEVETQGDDLQSLLFHFLDEWLYKFSADEFFIPREVKVLSIDQRNFKLRSIGWGEEFSLSKHPQGTEVKAITYSAMQVYNEENPEVFVIIDI
RNA ligase activity of affinity purified tRNA ligase complex upon addition of recombinant Archease [4]: neither of the mutant versions of Archease stimulated the low levels of ligation
Stimulation of ligation of Xbp1 RNA minimal substrates by affinity purified human tRNA ligase complex [3]: inactive
